Source: IntAct's records for PubMed 25783203

B1: Vacuolar protein sorting-associated protein 33A (Homo sapiens), Q96AX1 (parent)
chain: MAAHLSYGRVNLNVLREAVRRELREFLDKCAGSKAIVWDEYLTGPFGLIAQYSLLKEHEVEKMFTLKGNRLPAADVKNIIFFVRPRLELMDIIAENVLSEDRRGPTRDFHILFVPRRSLLCEQRLKDLGVLGSFIHREEYSLDLIPFDGDLLSMESEGAFKECYLEGDQTSLYHAAKGLMTLQALYGTIPQIFGKGECARQVANMMIRMKREFTGSQNSIFPVFDNLLLLDRNVDLLTPLATQLTYEGLIDEIYGIQNSYVKLPPEKFAPKKQGDGGKDLPTEAKKLQLNSAEELYAEIRDKNFNAVGSVLSKKAKIISAAFEERHNAKTVGEIKQFVSQLPHMQAARGSLANHTSIAELIKDVTTSEDFFDKLTVEQEFMSGIDTDKVNNYIEDCIAQKHSLIKVLRLVCLQSVCNSGLKQKVLDYYKREILQTYGYEHILTLHNLEKAGLLKPQTGGRNNYPTIRKTLRLWMDDVNEQNPTDISYVYSGYAPLSVRLAQLLSRPGWRSIEEVLRILPGPHFEERQPLPTGLQKKRQPGENRVTLIFFLGGVTFAEIAALRFLSQLEDGGTEYVIATTKLMNGTSWIEALMEKPF
partner: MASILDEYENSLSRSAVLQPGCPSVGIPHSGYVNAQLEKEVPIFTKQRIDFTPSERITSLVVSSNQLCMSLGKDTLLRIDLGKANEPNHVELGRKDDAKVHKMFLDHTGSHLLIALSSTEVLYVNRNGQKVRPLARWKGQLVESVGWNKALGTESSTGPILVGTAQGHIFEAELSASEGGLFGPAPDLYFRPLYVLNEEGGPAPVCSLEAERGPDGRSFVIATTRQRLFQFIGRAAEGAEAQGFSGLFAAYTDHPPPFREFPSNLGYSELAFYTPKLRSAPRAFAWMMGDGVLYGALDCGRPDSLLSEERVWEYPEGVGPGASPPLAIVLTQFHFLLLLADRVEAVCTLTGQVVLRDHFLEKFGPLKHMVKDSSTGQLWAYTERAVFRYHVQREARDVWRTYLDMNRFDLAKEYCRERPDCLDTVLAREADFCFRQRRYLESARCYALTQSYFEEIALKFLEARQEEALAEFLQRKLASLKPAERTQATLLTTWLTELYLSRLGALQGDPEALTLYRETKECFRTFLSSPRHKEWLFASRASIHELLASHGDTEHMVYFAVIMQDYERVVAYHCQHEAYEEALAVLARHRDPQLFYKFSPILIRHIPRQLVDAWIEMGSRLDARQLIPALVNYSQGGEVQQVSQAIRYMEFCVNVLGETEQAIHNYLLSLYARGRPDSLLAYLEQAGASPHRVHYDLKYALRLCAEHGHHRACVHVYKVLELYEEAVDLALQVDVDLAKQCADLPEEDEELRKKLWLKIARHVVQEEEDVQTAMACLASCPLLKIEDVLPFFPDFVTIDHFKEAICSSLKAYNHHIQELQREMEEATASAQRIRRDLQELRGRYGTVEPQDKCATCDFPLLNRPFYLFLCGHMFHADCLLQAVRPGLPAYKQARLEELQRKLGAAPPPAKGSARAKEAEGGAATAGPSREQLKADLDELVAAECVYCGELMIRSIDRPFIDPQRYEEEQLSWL

Variants of: B1
Details: with vps18_human VPS18, Q9P253

Effect of a mutation on the interaction, disrupting interaction:
Y438D;I441K
K429D;Y438D
K429D;I441K
